The results in this text go back to patent US10087225B2, “Formulation of MK2 inhibitor peptides” (MOERAE MATRIX, INC., priority 2015, dated 2018).

Targets include CHK2(R145W)(h) (Homo sapiens, UniProt O96017, R145W); IRR(h) (Homo sapiens, UniProt P14616); CK2(h) (Homo sapiens, UniProt P68400); IGF-1R(h), activated (Homo sapiens, UniProt P08069); CSK(h) (Homo sapiens, UniProt P41240); MLK1(h) (Homo sapiens, UniProt P80192).
Assay in all cases: Kinase Profiling Assay
What all share (format): biochemical
Common to all, as to details: for % activity: 100 μM

A further assay deals with T1, DCAMKL2(h) (Homo sapiens, UniProt Q8N568).
T1 sequence (Q8N568 1-766): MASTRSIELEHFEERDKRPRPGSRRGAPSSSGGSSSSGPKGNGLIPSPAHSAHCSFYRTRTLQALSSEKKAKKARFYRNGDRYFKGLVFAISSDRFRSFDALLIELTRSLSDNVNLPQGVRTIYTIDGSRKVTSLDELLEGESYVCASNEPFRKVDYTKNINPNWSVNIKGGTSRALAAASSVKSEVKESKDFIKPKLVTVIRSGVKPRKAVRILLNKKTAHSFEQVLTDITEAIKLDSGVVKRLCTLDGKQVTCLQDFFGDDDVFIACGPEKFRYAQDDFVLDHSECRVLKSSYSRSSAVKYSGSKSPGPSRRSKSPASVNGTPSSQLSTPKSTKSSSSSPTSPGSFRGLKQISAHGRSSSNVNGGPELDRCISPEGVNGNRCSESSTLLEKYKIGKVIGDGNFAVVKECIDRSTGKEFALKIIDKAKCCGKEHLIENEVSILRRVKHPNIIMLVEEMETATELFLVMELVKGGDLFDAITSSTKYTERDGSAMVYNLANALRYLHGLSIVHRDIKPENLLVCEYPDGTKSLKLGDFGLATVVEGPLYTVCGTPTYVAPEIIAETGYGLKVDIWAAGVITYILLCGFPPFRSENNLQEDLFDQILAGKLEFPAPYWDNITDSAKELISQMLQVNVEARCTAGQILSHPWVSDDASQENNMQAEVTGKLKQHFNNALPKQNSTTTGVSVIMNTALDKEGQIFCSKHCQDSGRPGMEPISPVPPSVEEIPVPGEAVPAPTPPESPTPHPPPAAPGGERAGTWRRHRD

For the next assay, the target named is T2, TAO2(h) (Homo sapiens, UniProt Q9UL54).
T2 sequence (Q9UL54 1-1235): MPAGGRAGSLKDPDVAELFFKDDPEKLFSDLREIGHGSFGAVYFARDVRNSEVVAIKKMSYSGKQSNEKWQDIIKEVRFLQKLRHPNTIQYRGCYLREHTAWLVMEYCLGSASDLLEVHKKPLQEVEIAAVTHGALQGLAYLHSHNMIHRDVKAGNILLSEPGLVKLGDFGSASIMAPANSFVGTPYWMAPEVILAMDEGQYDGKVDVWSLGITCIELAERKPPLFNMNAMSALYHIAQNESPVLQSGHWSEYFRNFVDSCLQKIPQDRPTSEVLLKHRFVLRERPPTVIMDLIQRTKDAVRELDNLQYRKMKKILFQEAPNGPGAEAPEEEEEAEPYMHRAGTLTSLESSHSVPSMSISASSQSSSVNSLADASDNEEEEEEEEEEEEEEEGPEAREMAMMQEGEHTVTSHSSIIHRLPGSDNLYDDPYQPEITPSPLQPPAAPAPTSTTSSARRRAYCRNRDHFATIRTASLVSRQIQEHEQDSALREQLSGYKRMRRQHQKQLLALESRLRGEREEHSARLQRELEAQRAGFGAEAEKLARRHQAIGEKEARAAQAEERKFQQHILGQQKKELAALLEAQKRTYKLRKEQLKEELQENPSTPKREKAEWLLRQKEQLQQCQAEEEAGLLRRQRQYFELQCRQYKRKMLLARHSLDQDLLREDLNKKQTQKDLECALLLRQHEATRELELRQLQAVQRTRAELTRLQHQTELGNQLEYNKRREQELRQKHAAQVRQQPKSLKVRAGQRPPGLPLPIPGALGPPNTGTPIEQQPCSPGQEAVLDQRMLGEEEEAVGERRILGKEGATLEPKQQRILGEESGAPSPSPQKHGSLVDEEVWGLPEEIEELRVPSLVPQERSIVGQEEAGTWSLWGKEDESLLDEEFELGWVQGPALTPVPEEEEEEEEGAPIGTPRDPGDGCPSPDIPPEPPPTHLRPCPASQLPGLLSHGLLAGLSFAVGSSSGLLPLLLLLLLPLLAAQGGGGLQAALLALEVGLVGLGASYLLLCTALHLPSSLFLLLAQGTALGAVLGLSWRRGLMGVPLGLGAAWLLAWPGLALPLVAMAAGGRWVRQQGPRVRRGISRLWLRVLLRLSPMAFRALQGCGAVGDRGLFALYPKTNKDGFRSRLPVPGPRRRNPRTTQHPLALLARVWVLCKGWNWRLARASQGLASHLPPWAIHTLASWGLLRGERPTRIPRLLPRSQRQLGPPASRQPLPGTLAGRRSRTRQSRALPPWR

CK2(h), sequence (P68400 whole entry): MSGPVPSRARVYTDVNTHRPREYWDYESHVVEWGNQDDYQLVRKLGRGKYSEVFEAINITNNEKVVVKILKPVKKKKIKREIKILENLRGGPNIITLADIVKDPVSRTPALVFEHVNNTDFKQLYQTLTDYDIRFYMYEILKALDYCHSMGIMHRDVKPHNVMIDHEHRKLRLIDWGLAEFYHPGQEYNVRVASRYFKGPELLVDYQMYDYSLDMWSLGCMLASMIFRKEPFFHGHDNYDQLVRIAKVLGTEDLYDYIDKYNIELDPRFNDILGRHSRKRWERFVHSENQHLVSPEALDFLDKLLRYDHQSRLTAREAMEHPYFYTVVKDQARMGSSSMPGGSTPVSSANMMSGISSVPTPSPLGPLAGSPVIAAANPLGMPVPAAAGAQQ
CK2(h), sequence (P67870 whole entry partner): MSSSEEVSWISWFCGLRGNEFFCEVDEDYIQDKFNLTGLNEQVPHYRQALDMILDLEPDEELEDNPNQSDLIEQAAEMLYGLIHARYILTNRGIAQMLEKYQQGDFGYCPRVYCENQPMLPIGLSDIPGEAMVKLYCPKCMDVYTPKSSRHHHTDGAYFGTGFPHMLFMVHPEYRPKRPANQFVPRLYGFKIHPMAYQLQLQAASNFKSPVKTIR
CHK2(R145W)(h), sequence (O96017 whole entry R145W): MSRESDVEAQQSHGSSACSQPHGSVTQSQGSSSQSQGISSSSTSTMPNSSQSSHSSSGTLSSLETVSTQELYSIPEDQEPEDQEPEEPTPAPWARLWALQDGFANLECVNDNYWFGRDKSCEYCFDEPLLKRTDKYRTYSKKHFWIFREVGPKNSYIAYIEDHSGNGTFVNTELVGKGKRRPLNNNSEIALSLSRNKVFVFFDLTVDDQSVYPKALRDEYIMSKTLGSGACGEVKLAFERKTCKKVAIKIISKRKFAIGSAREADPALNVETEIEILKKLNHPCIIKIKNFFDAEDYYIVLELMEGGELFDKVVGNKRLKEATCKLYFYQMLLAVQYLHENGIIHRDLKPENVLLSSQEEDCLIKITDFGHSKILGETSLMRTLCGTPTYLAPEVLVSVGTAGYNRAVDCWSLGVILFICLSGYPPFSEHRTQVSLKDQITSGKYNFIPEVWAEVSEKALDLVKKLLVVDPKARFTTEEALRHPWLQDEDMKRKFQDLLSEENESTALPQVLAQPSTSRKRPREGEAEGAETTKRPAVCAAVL
MLK1(h), sequence (P80192 whole entry): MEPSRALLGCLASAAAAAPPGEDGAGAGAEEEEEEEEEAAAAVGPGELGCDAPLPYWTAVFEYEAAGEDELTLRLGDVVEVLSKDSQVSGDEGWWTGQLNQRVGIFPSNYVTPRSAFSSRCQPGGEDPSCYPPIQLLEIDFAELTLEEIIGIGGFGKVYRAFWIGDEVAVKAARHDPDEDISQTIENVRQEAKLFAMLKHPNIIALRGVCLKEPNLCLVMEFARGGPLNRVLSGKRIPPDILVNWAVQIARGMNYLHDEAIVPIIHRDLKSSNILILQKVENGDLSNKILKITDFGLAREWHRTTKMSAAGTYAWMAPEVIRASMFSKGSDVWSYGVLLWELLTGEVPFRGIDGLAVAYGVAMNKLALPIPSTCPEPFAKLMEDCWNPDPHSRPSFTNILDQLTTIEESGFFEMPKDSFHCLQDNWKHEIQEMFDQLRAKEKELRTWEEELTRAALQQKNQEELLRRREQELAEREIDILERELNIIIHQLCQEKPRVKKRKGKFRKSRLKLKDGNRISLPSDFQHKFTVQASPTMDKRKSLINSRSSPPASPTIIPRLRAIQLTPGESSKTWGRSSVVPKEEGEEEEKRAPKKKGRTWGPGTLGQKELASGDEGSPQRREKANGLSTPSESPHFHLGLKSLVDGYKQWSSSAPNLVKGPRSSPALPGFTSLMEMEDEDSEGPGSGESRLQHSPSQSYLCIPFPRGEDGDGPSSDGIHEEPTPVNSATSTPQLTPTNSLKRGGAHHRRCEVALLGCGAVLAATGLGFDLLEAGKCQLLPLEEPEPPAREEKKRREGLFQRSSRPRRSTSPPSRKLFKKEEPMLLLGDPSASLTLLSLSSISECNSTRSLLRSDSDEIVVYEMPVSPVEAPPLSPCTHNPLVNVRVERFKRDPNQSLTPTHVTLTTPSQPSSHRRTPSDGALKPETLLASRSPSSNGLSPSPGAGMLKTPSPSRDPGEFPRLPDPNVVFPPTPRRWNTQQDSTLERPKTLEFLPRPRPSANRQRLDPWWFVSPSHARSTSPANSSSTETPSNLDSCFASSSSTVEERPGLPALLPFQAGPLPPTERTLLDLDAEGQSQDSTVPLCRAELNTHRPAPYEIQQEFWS
CSK(h), sequence (P41240 whole entry): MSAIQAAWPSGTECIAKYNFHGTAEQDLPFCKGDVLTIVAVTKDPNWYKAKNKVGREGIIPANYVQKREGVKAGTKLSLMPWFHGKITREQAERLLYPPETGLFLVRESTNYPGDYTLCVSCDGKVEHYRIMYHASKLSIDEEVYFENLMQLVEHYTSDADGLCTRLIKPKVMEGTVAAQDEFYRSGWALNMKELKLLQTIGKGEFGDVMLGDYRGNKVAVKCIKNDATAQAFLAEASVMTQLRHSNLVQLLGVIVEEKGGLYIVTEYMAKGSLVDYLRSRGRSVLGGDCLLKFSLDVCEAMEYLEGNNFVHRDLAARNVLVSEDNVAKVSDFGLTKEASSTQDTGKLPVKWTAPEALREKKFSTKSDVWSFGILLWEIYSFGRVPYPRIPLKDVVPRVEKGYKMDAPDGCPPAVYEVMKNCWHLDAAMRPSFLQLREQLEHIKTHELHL
IRR(h), sequence (P14616 27-1297): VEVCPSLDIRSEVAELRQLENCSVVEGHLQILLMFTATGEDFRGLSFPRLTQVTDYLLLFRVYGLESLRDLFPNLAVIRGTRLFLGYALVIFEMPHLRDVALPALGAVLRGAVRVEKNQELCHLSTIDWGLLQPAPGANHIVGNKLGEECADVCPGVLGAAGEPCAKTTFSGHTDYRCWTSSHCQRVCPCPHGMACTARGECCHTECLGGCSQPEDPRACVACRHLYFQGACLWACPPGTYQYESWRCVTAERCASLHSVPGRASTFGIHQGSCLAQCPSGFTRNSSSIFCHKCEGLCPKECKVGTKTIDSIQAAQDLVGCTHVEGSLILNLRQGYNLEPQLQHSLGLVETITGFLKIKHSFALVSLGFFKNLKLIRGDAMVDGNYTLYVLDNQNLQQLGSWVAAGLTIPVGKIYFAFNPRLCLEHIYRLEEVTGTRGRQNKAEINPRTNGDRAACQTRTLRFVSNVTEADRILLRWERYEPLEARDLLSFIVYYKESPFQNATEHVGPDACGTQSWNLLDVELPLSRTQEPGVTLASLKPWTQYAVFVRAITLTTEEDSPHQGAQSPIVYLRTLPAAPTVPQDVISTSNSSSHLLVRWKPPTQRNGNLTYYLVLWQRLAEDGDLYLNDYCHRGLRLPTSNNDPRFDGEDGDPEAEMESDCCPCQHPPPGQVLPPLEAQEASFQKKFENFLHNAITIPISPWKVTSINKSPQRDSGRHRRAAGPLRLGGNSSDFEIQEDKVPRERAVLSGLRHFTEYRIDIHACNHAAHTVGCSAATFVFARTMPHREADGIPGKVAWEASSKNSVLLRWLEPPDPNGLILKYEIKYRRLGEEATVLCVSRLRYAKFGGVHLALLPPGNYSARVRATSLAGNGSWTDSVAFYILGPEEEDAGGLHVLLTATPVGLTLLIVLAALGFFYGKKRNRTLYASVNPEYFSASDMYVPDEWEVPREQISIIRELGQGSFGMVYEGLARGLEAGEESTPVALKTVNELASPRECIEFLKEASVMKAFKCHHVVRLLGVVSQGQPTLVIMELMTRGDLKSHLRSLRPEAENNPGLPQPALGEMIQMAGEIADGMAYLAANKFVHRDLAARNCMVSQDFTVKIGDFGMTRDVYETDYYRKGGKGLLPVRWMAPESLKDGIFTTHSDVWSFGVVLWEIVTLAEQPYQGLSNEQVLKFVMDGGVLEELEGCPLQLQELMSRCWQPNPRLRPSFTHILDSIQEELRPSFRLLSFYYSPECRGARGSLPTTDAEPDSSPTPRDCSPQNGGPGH

As to H-YARAAARQARAKALARQLGVAA-OH [MMI-0100], the activity at 100 µM was 97% at CHK2(R145W)(h); 85% at IRR(h); 90% at CK2(h); 126% at IGF-1R(h), activated; 70% on CSK(h); 146% on DCAMKL2(h). Moreover, the values for the activity at 100 µM at TAO2(h) and on MLK1(h) were 95% and 77%, respectively.

As to “HRRIKAWLKKIKALARQLGVAA (Mammalian) [MMI-0500]”, the “% activity” value turned out to be 3% with CHK2(R145W)(h); 10% with IRR(h); 93% in the assay with CK2(h); 45% in the assay with IGF-1R(h), activated; 2% in the assay with CSK(h); 56% with DCAMKL2(h). Further, the “% activity” value was 15% in the assay with TAO2(h) and 43% with MLK1(h).

Consider “YARAAARQARAKALNRQLGVA (Mammalian) [MMI-0200]”, for which the “% activity” value with CHK2(R145W)(h) is 81%; with IRR(h), 69%; in the assay with CK2(h), 83%; with IGF-1R(h), activated, 94%; with CSK(h), 33%; with DCAMKL2(h) it was 131%. Moreover, the “% activity” value is given as 93% with TAO2(h) and 84% in the assay with MLK1(h).
